The values below come from article PMC8307404, “Crystal Structure-Guided Design of Bisubstrate Inhibitors and Photoluminescent Probes for Protein Kinases of the PIM Family” (Molecules, 2021).

Square brackets hold non-standard residues; d marks the D form. Peptide text beside a SMILES is read from it. * marks the point of attachment. X3 = O=C(CCCCCNCc1nc2c(sc3cc(Br)cnc32)c(=O)[nH]1)*

Common to all, as to assay: Kinase profiling (radiometric filter-binding)
What all share (format): biochemical

The target in one data set is EF2K (Homo sapiens, UniProt O00418). Particulars: 1 µM inhibitor, read-out: Residual activity, %. The protocol: (§1) Kinase selectivity profiling was performed using the commercial service provided by the MRC PPU International Centre for Kinase Profiling (Dundee, UK) using a radiometric filter-binding assay. Kinases used for analysis were of human origin. The ATP concentration applied for inhibition measurements was at or below the ATP KM value of the particular PK. ARC-3125 and ARC-3126 were screened against 139 PKs, whereas compounds 1, 2, and 8 were screened against 140 PKs. The final total concentration of inhibitors in the selectivity panel was 1 µM. Residual activities were expressed as the percentage of retained activity compared to the control without inhibitor.

The target in another data set is MAPKAP-K3 (Homo sapiens, UniProt Q16644). Particulars: MAPKAP-K3, 1 µM inhibitor; read-out: Residual activity, %. The protocol: as §1
In another data set the target is T1, IKK (Homo sapiens, UniProt Q14164).
T1 sequence (Q14164 1-716): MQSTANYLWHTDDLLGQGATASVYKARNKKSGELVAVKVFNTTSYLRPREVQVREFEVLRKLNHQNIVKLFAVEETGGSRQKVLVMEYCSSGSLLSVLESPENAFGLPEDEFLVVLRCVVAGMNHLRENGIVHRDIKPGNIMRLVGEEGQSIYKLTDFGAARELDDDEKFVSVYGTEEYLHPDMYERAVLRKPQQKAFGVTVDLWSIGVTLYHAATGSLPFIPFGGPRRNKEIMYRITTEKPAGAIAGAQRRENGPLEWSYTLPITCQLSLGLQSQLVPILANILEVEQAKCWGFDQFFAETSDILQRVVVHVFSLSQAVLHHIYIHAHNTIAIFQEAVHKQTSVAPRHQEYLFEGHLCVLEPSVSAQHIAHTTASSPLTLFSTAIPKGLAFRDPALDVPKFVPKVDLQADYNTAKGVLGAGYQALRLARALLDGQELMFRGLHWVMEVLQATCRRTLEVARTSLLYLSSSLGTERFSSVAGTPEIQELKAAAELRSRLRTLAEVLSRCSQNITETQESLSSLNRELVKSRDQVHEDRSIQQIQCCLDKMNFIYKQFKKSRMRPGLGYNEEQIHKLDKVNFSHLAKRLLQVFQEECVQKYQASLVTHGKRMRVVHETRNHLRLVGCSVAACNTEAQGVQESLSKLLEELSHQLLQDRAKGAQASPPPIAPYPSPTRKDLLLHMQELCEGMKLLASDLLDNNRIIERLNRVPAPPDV
Particulars: second of two IKK lines (Greek letter lost), 1 µM inhibitor, read-out: Residual activity, %. How it is done: as §1

In the next data set the target is JAK2 (Homo sapiens, UniProt O60674). Particulars: JAK2, 1 µM inhibitor; read-out: Residual activity, %. How it is done: as §1
The target of the next data set is S6K1 (Homo sapiens, UniProt P23443). Particulars: S6K1, 1 µM inhibitor; read-out: Residual activity, %. How it is done:
as §1

Another data set deals with PLK1 (Homo sapiens, UniProt P53350). Particulars: PLK1, 1 µM inhibitor; read-out: Residual activity, %. The protocol: as §1
In another data set the target is CHK2 (Homo sapiens, UniProt O96017). Particulars: CHK2, 1 µM inhibitor; read-out: Residual activity, %. How it is done: as §1
In a further data set the target is OSR1 (Homo sapiens, UniProt O95747). Particulars: OSR1, 1 µM inhibitor; read-out: Residual activity, %. How it is done:
as §1

Another data set has as its target T2, MARK4 (Homo sapiens, UniProt Q96L34).
T2 sequence (Q96L34 1-752): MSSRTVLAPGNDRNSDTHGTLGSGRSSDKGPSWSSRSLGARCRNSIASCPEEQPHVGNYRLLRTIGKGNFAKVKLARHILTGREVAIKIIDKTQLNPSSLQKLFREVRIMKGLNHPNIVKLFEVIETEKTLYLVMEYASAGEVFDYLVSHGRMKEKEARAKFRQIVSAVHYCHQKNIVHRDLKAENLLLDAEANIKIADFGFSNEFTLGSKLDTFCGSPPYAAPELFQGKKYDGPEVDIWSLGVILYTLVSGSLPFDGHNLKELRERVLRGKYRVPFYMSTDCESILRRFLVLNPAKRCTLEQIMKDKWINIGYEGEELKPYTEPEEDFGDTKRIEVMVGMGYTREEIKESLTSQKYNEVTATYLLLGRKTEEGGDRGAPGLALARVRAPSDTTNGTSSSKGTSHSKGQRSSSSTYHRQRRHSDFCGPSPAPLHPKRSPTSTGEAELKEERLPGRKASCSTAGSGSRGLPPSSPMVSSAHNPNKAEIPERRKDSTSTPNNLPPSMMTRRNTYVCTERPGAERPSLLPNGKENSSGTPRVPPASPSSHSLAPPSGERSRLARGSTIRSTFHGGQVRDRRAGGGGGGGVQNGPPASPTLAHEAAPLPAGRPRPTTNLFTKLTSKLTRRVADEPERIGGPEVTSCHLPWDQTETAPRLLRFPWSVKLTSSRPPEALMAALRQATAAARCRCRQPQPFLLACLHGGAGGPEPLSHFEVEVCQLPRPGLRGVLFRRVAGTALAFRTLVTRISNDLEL
Particulars: MARK4, 1 µM inhibitor; read-out: Residual activity, %. How it is done: as §1

The next data set deals with CK1γ2 (Homo sapiens, UniProt P78368). Particulars: CK1γ2, 1 µM inhibitor; read-out: Residual activity, %. The protocol: as §1
Chain of CK1γ2 (P78368 whole entry): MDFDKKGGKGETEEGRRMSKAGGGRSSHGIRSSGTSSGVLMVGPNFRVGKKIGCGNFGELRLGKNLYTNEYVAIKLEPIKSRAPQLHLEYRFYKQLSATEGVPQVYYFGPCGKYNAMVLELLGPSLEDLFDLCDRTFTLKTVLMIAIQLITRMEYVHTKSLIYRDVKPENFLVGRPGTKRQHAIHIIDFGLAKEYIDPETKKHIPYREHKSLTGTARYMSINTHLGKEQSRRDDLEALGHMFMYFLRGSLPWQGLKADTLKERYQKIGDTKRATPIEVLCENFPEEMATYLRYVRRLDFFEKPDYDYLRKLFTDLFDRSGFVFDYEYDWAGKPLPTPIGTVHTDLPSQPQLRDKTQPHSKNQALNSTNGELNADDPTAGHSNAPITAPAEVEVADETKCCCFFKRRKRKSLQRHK

Chain of OSR1 (O95747 whole entry): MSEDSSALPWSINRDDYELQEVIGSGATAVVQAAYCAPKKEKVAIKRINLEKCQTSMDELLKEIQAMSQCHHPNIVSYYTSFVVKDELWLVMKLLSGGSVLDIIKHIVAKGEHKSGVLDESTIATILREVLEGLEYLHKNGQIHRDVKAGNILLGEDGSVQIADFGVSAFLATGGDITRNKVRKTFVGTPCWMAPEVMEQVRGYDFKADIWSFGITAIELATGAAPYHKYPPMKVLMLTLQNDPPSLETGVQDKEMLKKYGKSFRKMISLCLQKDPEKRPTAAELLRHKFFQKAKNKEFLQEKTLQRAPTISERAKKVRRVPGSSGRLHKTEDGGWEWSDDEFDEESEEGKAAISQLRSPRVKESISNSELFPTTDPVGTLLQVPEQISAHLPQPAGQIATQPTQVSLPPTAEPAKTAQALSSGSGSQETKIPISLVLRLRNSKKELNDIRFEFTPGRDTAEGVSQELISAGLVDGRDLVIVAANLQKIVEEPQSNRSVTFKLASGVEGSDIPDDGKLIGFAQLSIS
Chain of CHK2 (O96017 whole entry): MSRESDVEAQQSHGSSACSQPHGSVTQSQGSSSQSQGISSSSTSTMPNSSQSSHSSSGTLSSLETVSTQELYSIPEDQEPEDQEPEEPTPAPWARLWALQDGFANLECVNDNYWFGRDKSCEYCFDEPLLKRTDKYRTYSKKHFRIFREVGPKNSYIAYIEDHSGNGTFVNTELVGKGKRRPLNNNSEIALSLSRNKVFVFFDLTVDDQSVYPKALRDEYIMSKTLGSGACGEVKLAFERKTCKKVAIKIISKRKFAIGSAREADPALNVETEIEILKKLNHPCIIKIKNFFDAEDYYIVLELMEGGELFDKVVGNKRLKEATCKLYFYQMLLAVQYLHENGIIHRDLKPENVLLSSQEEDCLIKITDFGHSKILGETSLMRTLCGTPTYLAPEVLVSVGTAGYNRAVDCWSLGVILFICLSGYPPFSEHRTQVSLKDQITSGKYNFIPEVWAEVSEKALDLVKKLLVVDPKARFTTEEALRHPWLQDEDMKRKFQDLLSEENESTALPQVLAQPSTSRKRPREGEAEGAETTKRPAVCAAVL
Chain of PLK1 (P53350 whole entry): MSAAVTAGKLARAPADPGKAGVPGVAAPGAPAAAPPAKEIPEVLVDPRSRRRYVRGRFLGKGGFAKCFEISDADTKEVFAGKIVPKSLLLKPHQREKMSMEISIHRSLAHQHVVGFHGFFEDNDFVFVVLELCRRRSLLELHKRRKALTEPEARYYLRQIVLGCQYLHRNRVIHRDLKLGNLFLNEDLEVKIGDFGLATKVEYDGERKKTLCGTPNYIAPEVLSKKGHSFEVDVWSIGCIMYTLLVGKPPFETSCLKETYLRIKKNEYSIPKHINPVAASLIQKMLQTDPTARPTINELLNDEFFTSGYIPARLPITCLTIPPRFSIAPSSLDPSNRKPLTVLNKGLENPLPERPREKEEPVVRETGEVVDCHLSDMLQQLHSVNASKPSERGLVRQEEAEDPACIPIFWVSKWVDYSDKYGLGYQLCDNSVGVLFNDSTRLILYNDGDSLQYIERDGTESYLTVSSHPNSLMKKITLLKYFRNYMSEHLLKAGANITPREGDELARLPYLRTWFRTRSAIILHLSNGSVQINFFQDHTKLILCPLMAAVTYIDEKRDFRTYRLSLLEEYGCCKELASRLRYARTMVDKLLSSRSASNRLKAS
Chain of JAK2 (O60674 whole entry): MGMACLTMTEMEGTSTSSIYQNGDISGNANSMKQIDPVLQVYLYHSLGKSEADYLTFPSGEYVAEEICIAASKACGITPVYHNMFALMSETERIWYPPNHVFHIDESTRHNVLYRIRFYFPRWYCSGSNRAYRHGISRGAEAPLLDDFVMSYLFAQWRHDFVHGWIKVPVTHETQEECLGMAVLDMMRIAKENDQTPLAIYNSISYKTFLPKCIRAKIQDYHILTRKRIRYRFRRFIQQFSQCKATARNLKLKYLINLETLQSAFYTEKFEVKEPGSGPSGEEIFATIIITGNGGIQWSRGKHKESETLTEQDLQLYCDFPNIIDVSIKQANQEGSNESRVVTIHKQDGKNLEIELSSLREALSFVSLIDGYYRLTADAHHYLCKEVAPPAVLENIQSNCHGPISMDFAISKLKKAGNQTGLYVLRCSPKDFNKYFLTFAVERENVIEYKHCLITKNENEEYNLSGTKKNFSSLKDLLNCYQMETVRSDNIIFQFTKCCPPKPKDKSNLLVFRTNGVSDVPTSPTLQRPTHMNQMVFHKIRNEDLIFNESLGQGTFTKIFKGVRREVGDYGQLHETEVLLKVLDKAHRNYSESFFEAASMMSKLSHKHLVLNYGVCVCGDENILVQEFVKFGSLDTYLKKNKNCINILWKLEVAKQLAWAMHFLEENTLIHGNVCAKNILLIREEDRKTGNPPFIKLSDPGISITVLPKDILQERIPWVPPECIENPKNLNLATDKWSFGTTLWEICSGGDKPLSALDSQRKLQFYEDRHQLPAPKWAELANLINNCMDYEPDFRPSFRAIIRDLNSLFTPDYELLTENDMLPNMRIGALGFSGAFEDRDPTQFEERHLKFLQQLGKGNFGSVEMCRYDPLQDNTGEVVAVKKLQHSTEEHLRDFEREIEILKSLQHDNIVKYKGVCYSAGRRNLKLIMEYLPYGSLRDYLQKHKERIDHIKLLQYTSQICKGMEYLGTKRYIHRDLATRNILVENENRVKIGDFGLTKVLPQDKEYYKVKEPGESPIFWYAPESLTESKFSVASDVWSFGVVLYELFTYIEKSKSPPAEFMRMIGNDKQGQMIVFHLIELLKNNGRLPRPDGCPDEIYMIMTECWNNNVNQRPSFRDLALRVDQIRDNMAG
Chain of MAPKAP-K3 (Q16644 whole entry): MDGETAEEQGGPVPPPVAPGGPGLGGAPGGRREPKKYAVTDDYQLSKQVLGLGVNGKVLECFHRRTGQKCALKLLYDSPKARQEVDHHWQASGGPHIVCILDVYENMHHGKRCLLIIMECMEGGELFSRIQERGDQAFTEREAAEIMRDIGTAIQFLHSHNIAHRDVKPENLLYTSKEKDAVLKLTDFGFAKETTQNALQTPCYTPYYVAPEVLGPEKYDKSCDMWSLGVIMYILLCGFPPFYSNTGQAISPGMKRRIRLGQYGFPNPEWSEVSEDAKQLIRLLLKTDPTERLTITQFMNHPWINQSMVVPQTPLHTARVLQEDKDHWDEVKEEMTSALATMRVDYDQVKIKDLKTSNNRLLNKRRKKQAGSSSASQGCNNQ
Chain of S6K1 (P23443 whole entry): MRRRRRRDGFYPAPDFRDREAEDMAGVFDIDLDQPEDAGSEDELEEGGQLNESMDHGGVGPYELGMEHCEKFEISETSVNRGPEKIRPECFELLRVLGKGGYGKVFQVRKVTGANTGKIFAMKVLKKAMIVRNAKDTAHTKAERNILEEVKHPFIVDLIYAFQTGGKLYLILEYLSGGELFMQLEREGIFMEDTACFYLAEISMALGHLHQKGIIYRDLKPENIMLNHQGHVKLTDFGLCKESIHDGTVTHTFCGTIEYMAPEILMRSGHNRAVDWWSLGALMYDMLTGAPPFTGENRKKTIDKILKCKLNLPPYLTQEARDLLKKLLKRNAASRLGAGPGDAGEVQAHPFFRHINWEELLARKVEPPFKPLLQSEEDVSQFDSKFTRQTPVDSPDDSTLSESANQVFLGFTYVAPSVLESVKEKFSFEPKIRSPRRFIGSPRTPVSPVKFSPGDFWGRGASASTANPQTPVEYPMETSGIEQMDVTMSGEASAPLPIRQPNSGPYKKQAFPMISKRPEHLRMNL

As to `N=C(N)NCCC[C@@H](NC(=O)CCCCCNCc1nc2c(sc3cc(Br)cnc32)c(=O)[nH]1)C(=O)N[C@H](CCCNC(=N)N)C(=O)N[C@H](CCCNC(=N)N)C(=O)N[C@H](CCCNC(=N)N)C(=O)N[C@H](CCCNC(=N)N)C(=O)N[C@H](CCCNC(=N)N)C(=O)N[C@H](CCCCN)C(N)=O` [ARC-3126, BPTP-Ahx-(D-Arg)6-D-Lys-NH2] (X3-[dR][dR][dR][dR][dR][dR][dK]-NH2), the remaining activity at 1 µM with EF2K is 85 ± 10%; with MAPKAP-K3, 43 ± 7%; with IKK it was 118 ± 12%; with JAK2, 116 ± 9%; in the data set with S6K1, 75 ± 2%; with PLK1, 50 ± 16%. Also, the remaining activity at 1 µM with CHK2 is 76 ± 15%; with OSR1, 116 ± 12%; with MARK4, 119 ± 7%; in the data set with CK1γ2, 66 ± 10%.

Regarding `N=C(N)NCCC[C@@H](NC(=O)CNC(=O)[C@@H](CCCNC(=N)N)NC(=O)[C@@H](CCCNC(=N)N)NC(=O)CCCCCCCNCc1nc2c(sc3ccc(Br)cc32)c(=O)[nH]1)C(=O)N[C@H](CCCCN)C(N)=O` [Compound 2, BBTP-Aoc-(D-Arg)2-Gly-D-Arg-D-Lys-NH2], the remaining activity at 1 µM in the data set with EF2K turned out to be 98 ± 7%; in the data set with MAPKAP-K3 it was 110 ± 11%; with IKK, 104 ± 15%; in the data set with JAK2, 82 ± 16%; with S6K1 it was 85 ± 1%; with PLK1 it was 99 ± 1%. Further, the remaining activity at 1 µM with CHK2 amounted to 103 ± 2%; in the data set with OSR1 it was 114 ± 4%; with MARK4, 128 ± 3%; in the data set with CK1γ2 it was 116 ± 10%.

For `N=C(N)NCCC[C@@H](NC(=O)CNC(=O)[C@@H](CCCNC(=N)N)NC(=O)[C@@H](CCCNC(=N)N)NC(=O)Cn1cc(CNCc2nc3c(sc4ccc(Br)cc43)c(=O)[nH]2)nn1)C(=O)N[C@H](CCCCN)C(N)=O` [Compound 3, BBTP-Amt-(D-Arg)2-Gly-D-Arg-D-Lys-NH2], the remaining activity at 1 µM was 102 ± 3% in the data set with EF2K; 85 ± 5% with MAPKAP-K3; 122 ± 12% in the data set with IKK; 72 ± 21% with JAK2; 55 ± 6% with S6K1; 97 ± 7% in the data set with PLK1. The remaining activity at 1 µM with CHK2 was determined as 52 ± 10%; with OSR1 it was 107 ± 14%; in the data set with MARK4, 90 ± 12%; in the data set with CK1γ2, 88 ± 1%.

In the case of `N=C(N)NCCC[C@@H](NC(=O)CCCCCNC(=O)Cn1cnc2c(I)c(I)c(I)c(I)c21)C(=O)N[C@H](CCCNC(=N)N)C(=O)N[C@H](CCCNC(=N)N)C(=O)N[C@H](CCCNC(=N)N)C(=O)N[C@H](CCCNC(=N)N)C(=O)N[C@H](CCCNC(=N)N)C(=O)N[C@H](CCCCN)C(N)=O` [ARC-3125, TIBI-CH2-C(=O)-Ahx-(D-Arg)6-D-Lys-NH2], the remaining activity at 1 µM worked out at 103 ± 1% with EF2K; 48 ± 1% in the data set with MAPKAP-K3; 77 ± 4% with IKK; 115 ± 5% with JAK2; 13% with S6K1; 40 ± 4% in the data set with PLK1. In addition, the remaining activity at 1 µM with CHK2 was 116 ± 16%; in the data set with OSR1, 73 ± 2%; with MARK4, 92 ± 3%; with CK1γ2 it was 45 ± 5%.

`N=C(N)NCCC[C@@H](NC(=O)CNC(=O)[C@@H](CCCNC(=N)N)NC(=O)[C@@H](CCCNC(=N)N)NC(=O)CCCCCCCNCc1nc2c(sc3cc(Br)cnc32)c(=O)[nH]1)C(=O)N[C@H](CCCCN)C(N)=O` [Compound 1, BPTP-Aoc-(D-Arg)2-Gly-D-Arg-D-Lys-NH2]: the remaining activity at 1 µM with EF2K was 104 ± 2%; in the data set with MAPKAP-K3, 111 ± 6%; with IKK, 116 ± 9%; in the data set with JAK2 it was 93 ± 14%; with S6K1, 98 ± 2%; with PLK1, 99 ± 1%. The remaining activity at 1 µM is 107 ± 9% with CHK2, 114 ± 7% with OSR1, 124 ± 14% with MARK4 and 117 ± 3% in the data set with CK1γ2.
